Positions count from the first letter of the chain named. “And” between values parts separate entries of the source, which are not always exact repeats. Equal values may be shown once.
Experiments:
CD3 on T cells [1] = target: T1, CD3 on T cells (UniProt P07766 23-207); assay: cell-based or functional assay
CD3 on T cells [2] = target: T1, CD3 on T cells; assay: cell-based or functional assay; remark: listed apart in the source
CD3 on T cells [3] = target: T1, CD3 on T cells; assay: flow cytofluorimetry on peripheral blood T cells, fit of Median FI against concentration; one of three independent determinations
Method: (§1) The antibody binding to peripheral blood T cells was determined for T cell affinity over a range of concentration as shown in FIG. 8A. MFI were plotted and affinity (EC50) was determined using GraphPad PRISM. Three independent affinity determinations and their averages were indicated. […] Both h10Ta antibodies engaged CDH17 (on DLD1) and CD3. The signaling was determined according to manufacturer's protocol, at 24 hours using an antibody concentration range as indicated and Jurkat reporter cells at 100×10³ and DLD1 cells at 30×10³ per microtiter well (96-well plate). Luciferase expression/activity was measured using a multimode plate reader. […] Controls included no antibody or a CD3, CD28, CD2 agonist (Immunocult; StemCell) to induce maximal stimulation.

CD3 on T cells [4] = target: T1, CD3 on T cells; assay: flow cytofluorimetry on peripheral blood T cells, EC50 from MFI, average of three determinations; h10Ta-wt, parental Fv Vk CDR1
Method: as §1

[5] = target: T2, Fibroblast activation protein alpha (FAP) on DLD1-FAP cells (UniProt Q12884 1-760, limits assumed); assay: cell-based or functional assay
T2 sequence (looked up): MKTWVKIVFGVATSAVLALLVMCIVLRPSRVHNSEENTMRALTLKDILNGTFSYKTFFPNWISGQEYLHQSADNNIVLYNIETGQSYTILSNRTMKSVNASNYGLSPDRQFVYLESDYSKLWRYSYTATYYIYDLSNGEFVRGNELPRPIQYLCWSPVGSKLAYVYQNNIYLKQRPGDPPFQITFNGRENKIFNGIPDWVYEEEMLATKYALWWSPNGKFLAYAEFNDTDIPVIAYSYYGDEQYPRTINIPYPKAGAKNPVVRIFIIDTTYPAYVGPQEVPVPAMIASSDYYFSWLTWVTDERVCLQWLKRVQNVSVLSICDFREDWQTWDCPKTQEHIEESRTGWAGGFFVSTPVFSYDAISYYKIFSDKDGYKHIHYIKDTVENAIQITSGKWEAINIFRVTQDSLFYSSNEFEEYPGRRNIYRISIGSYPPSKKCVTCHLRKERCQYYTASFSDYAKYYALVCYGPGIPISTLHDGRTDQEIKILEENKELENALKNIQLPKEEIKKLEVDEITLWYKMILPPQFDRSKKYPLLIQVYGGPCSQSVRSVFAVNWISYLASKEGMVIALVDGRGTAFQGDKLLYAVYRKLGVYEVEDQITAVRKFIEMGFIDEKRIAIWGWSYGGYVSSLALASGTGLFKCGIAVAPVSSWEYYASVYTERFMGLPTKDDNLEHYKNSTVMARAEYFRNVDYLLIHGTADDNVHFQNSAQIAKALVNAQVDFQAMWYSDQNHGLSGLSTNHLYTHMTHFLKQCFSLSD

CD3 on T cells [6] = target: T1, CD3 on T cells; assay: flow cytofluorimetry on peripheral blood T cells
Method: as §1

CD3 on T cells [7] = target: T1, CD3 on T cells; assay: flow cytofluorimetry on peripheral blood T cells, EC50 from MFI, average of three determinations; h10Ta-L4, modified CDRL1
Method: as §1

T1 sequence (P07766 23-207): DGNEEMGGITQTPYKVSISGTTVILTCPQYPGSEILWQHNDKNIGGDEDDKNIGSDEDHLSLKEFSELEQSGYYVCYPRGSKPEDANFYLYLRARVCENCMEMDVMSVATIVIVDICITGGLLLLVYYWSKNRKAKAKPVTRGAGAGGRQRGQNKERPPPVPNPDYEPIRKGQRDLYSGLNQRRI

B1: h10Ta-wt (bispecific antibody)
light: DIQMTQSPSSLSASVGDRVTITCRASQDIRNYLNWYQQKPGKAPKLLIYYTSRLESGVPSRFSGSGSGTDYTLTISSLQPEDFATYYCQQGNTLPWTFGQGTKVEIKGAPGGGTHTCPPCPAPELLGGPSVFLFPPKPKDTLMISRTPEVTCVVVDVSQEDPEVQFNWYVDGVEVHNAKTKPREEQFNSTYRVVSVLTVLHQDWLNGKEYKCKVSNKGLPSSIEKTISKAKGQPREPQVYTLPPSREEMTKNQVSLSCAVKGFYPSDIAVEWESNGQPENNYKTTPPVLDSDGSFFLVSKLTVDKSRWQQGNVFSCSVMHEALHNHYTQKSLSLSPGK
heavy: EVQLLESGGGLVQPGGSLRLSCAASGFTFSSYAMSWVRQAPGKGLEWVAVIDSNGGSTYYPDTVKDRFTISRDNSKNTLYLQMNSLRAEDTAVYYCSSYTNLGAYWGQGTLVTVSAGGGGSGGGGSGGGGSDIQMTQSPSSLSASVGDRVTITCRASQDISGYLNWLQQKPGKAIKRLIYTTSTLDSGVPSRFSGSGSGTDFTLTISSLQPEDFATYYCLQYASSPFTFGGGTKVEIKPAGGGGGSEVQLVESGGGLVQPGGSLRLSCAASGYSFTGYTMNWVRQAPGKGLEWVALINPYKGVSTYNQKFKDRFTISVDKSKNTAYLQMNSLRAEDTAVYYCARSGYYGDSDWYFDVWGQGTLVTVSSGAPGGGTHTCPPCPAPELLGGPSVFLFPPKPKDTLMISRTPEVTCVVVDVSQEDPEVQFNWYVDGVEVHNAKTKPREEQFNSTYRVVSVLTVLHQDWLNGKEYKCKVSNKGLPSSIEKTISKAKGQPREPQVYTLPPSREEMTKNQVSLWCLVKGFYPSDIAVEWESNGQPENNYKTTPPVLDSDGSFFLYSKLTVDKSRWQQGNVFSCSVMHEALHNHYTQKSLSLSPGK
notes: also called h10Ta with the parental Fv; h10Ta (wt anti-CD3 Fv)
EC50 (read off the curve), NFAT-luciferase induction in Jurkat reporter cells with DLD1 cells (CD3 on T cells [1]): ~0.4 nM | EC50 for AGS killing in the presence of T cells, 24 hours, E:T 4 (CD3 on T cells [2]): 0.0014 nM | EC50 for killing DLD1 in the presence of T cells, 24 hours, E:T 4 (CD3 on T cells [2]): 0.0005 nM | Kd (CD3 on T cells [3]): 50 nM and 54 nM and 75 nM | EC50 (CD3 on T cells [4]): 60 nM

B2: hB2Ta (bispecific antibody)
light: B1 light with R24Q, R30S
heavy: QVQLVQSGAEVKKPGASVKVSCKASGYSFTDYTMNWVRQAPGQGLEWMGVINPNHGISSYAQKFQGRVTMTRDTSTSTVYMELSSLRSEDTAVYYCVRRKISYDYDEGYAMDYWGQGTLVTVSSGGGGSGGGGSGGGGSDIVMTQSPDSLAVSLGERATINCKSSQNLLNSSNQKNYLAWYQQKPGQPPKLLVFFAATRESGVPDRFSGSGSGTDFTLTISSLQAEDVAVYYCQQHYSTPWTFGGGTKLEIKPAGGGGSEVQLVESGGGLVQPGGSLRLSCAASGYSFTGYTMNWVRQAPGKGLEWVALINPYKGVSTYNQKFKDRFTISVDKSKNTAYLQMNSLRAEDTAVYYCARSGYYGDSDWYFDVWGQGTLVTVSSGAPGGGTHTCPPCPAPELLGGPSVFLFPPKPKDTLMISRTPEVTCVVVDVSQEDPEVQFNWYVDGVEVHNAKTKPREEQFNSTYRVVSVLTVLHQDWLNGKEYKCKVSNKGLPSSIEKTISKAKGQPREPQVYTLPPSREEMTKNQVSLWCLVKGFYPSDIAVEWESNGQPENNYKTTPPVLDSDGSFFLYSKLTVDKSRWQQGNVFSCSVMHEALHNHYTQKSLSLSPGK
EC50 of tumor cell cytotoxicity, DLD1-FAP cells with T cells, 24 hours, E:T 4 [5]: 0.041 nM

B3: h10Ta-L4 (bispecific antibody)
light: B1 light with R24Q, R30S
heavy: B1 heavy
notes: also called TriAx-A harboring L4
EC50 (read off the curve), NFAT-luciferase induction in Jurkat reporter cells with DLD1 cells (CD3 on T cells [1]): ~0.8 nM | EC50 for AGS killing in the presence of T cells, 24 hours, E:T 4 (CD3 on T cells [2]): 0.002 nM | EC50 for killing DLD1 in the presence of T cells, 24 hours, E:T 4 (CD3 on T cells [2]): 0.0004 nM | fold decrease in T cell signaling, NFAT luciferase Jurkat reporter cells with DLD1 cells, 24 hours (CD3 on T cells [2]): 2 fold | Kd (CD3 on T cells [3]): 236 nM and 358 nM and 365 nM | fold decrease in T cell affinity relative to the parental Fv (h10Ta-wt) (CD3 on T cells [6]): 5 fold | EC50 (CD3 on T cells [7]): 320 nM
